The source of these data is US8124742.

This assay concerns the target T1, human Rh(D) antigen on Rh(D)-positive red blood cells (human, UniProt Q02161 2-417).
T1 construct: whole, on cells; also called wt; wild type Rh(D)
T1 sequence (looked up): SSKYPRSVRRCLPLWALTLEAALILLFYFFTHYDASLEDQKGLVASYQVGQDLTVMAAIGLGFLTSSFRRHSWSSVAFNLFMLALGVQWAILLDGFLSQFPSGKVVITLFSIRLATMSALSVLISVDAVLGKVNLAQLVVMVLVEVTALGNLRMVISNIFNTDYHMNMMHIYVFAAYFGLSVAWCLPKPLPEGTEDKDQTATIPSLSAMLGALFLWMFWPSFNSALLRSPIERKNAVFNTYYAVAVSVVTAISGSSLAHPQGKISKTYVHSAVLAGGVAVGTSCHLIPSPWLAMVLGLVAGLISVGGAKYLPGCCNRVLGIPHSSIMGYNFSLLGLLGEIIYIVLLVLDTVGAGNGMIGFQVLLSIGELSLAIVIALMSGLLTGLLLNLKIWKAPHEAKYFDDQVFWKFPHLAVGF
Put plainly: agglutination, anti-M13. The protocol:
The binding of anti-Rh(D) Fab/phage or soluble Fab molecules to normal or partial Rh(D) antigens was assessed by indirect agglutination assays as described (Siegel et al., 1994, Blood 83:2334; Siegel et al., 1997, J. Immunol. Meth. 206: 73). […] Following a one-hour incubation at 37° C., the RBCs were washed 3 times with 2 ml of cold PBS to remove unbound antibody. The resulting RBC pellets were resuspended in 100 μl of a 10 μg/ml solution of sheep anti-M13 antibody (5 Prime-3 Prime, Boulder, Colo.) for Fab/phage experiments or goat anti-human κ or λ light chain antibody (Tago, Burlingame, Calif.) for $\gamma_1\kappa$ or $\gamma_1\lambda$ soluble Fab experiments, respectively. The RBC suspensions were transferred to the round-bottomed wells of a 96-well microplate and left undisturbed for 2 hours. Negative reactions show sharp ~2 millimeter diameter RBC spots whereas the RBCs in agglutinated wells form a thin carpet coating the entire floor of the well (Siegel et al., 1997, J. Immunol. Meth. 206:73). Agglutination titers for recombinant antibodies were determined by performing serial 2-fold dilutions in 1% BSA/PBS.
Fifty-six randomly chosen colonies were selected, and monoclonal Fab/phage preparations were separately produced from each of these individual colonies, using the methods described herein in Example 1. Rh(D) specificity was determined by indirect agglutination using anti-M13 antibody, as described herein in Examples 1 and 2.

B1: SH46 (Fab, V domains shown)
VH: VQLLEESGGGVVQPGRSLRLSCAASGFTFSSYGMHWVRQAPGRGLEWVALIWYDGGNKEYADSVKGRFSISRDNSKNTLYLQVNSLRADDTAVYYCARDQRAAAGIFYYSRMDVWGQGTTVTVSS
VL: AELTQSPSSLSASVGDRVTITCRASQYISSYLNWYQQKPGKAPNLLIYAASSLQSGVPSRFSGSGSGTDFTLTISSLQPEDFATYYCQQTYSSPSTFGPGTKVDIKR
notes: Fab on M13 phage
Regarding B1, the binding result is “binds”.

B2: SH47 (Fab, V domains shown)
VH: EVQLLESGGGVVQPGRSLRLSCAASGFSFSNYAMHWVRQAPGKGLEWVAVTSFDGSIKDYADSVKGRFTISRDNSKNTLYLQMNSLRDEDTAVYYCARERGMIVVVRRRNAFDIWGQGTMVTVSS
VL: AELTQSPSSLSASVGDRVTITCRASQSISNYLNWYQQKPGKAPNLLIYAASSLQSGVPSRFSGSGSGTDFTLTISSLQPEDFATYYCQQSYSYPRTFGQGTKVEIRR
notes: Fab on M13 phage
B2: the binding result is “binds”.

B3: SH48 (Fab, V domains shown)
VH: EVQLLESGGGVVQPGRSLRLSCAASGFSFSSYGMHWVRQAPGKGLEWVAVISYDGTNKYFADSVKGRFTISRDNSKKTLYLQMTSLRPEDTAVYFCANLRGEVTRRASVPLDIWGQGTMVTVSS
VL: AELTQSPSSLSASVGDRVTITCRASQYISSYLNWYQQKPGKAPNLLIYAASSLQSGVPSRFSGSGSGTDFTLTISSLQPEDFATYYCQQTYSSPSTFGPGTKVDIKR
notes: Fab on M13 phage
Turning to B3, the binding result is “binds”.

B4: SH37 (Fab, V domains shown)
VH: EVQLLESGGGVVQPGRSLRLSCEASKFTLYNYGMHWVRQAPGKGLEWVAFIWFDGSNKYYEDSVKGRFTVSRDNSKNTLYLQMNSLRAEDTAVYYCARELSKKVALSRYYYYMDVWGQGTTVTVSS
VL: AELQDPVVSVALGQTVKITCQGDSLRKYYASWYQQKPGQAPVLVFYARNSRPSGIPDRFSGSNSGTTASLTIAGARAEDEADYYCHSRDSNGHHRVFGGGTKLTVL
notes: Fab on M13 phage
On to B4, for which the binding result is reported as “binds”.

B5: SH39 (Fab, V domains shown)
VH: VQLLEQSGGGVVQPGRSLRLSCAASGFTFSSYGMHWVRQAPGKGLEWVAVIWFDGSNKEYADSVKGRFTISRDNSKNTLYLQMNSLRAEDTAVYYCAREEVVRGVILWSRKFDYWGQGTLVTVSS
VL: AELTQSPSSLSASVGDRVTITCRASQTIGRYLNWYQQRPGKAPKLLVYAVSSLQSGAPSRFSGSGSGTHFTLTITSLQPEDFATYFCQQSYSSPFTFGQGTKVEIKR
notes: Fab on M13 phage
Regarding B5, the binding result is given as “binds”.

B6: SH41 (Fab, V domains shown)
VH: EVQLLESGGGVVQPGRSLRLSCAASGFTFSTYGMHWVRQAPGKGLEWVAVIWFDGSNKEYADSVKGRFTISRDNSKNTLYLQMNSLRAEDTAVYYCAREEVVRGVILWSRKFDYWGQGTLVTVSS
VL: AELTQSPSSLSASVGDRVTITCRASQNIRRSLNWYQHKPGRAPRLLIYAASTLQSGVPSRFRGSGSGTDFTLTINSLQPADFATYYCQQSSNTPWTFGHGTKVEIKR
notes: Fab on M13 phage
With B6, the binding result is “binds”.

B7: SH44 (Fab, V domains shown)
VH: EVQLLESGGGVAQPGRSLRLSCVASGFSLRSYGMHWVRQAPGKGLEWVADIWFDGSNKDYADSVKGRFTISRDNSKNTLYLQMNSLRAEDTAVYYCARDWRVRAFSSGWLSAFDIWGQGTMVTVSS
VL: AELTQSPSSLSASVGDRVIITCRASQTIPRFLNWYQQKPGKAPVLLIHSISSLQSGVPSRFSASGSGTEFTLTISSLQPEDFATYYCQQSYSNLSFGPGTTVDIRR
notes: Fab on M13 phage
On to B7, for which the binding result was “binds”.

B8: SH49 (Fab, V domains shown)
VH: EVQLLESGGGVVQPGRSLRLACAASGFSFRSYGMHWVRQAPGRGLEWVAFTWFDGSNKYYVDSVKGRFTISRDNSKNTLYLEMNSLRVDDTAVYYCAREASMLRGISRYYYAMDVWGPGTTVTVSS
VL: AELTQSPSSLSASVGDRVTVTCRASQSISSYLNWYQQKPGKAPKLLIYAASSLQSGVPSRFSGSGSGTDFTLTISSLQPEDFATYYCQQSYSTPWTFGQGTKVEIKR
notes: Fab on M13 phage
B8: the binding result is “binds”.
